Reference: patent publication US20110319338A1, “PEPTIDES THAT BIND EUKARYOTIC TRANSLATION INITIATION FACTOR 4E” (The Board of Regents of the University of Texas System, priority 2008, published 2011)
Square brackets hold non-standard residues; d marks the D form. Ends that are not written are not given here.

Legend:
[1] = biological target: T1, binding of eIF4E to eIF4G (Homo sapiens, UniProt P06730); assay: Immunoprecipitation with eIF4E antibody and Western blot with eIF4G antibody, OVCAR-3 cell lysate incubated with peptide; conditions: peptide 3 micromoles per liter, 250 micrograms OVCAR-3 cell lysate
T1 construct: endogenous in cells; host or cells: OVCAR-3 cell lysate
Procedure: FIGS. 1A-1G. 4EBP peptides bind eIF4E and inhibit binding of eIF4E to eIF4G. (FIG. 1A) Sequences of peptides comprising residues 49 to 68 of 4EBP1 and 4EBP2. (FIG. 1B) Biotinylated peptides (3 micromoles per liter) were incubated with 250 micrograms of OVCAR-3 cell lysate. Peptides were pulled-down using streptavidin-agarose. Precipitates (P) and supernatants (S) were analyzed by Western blot using eIF4E antibody. In (FIG. 1C), immunoprecipitation was performed using eIF4E antibody, and Western blot performed using eIF4G antibody. (FIG. 1D) Sequences of wild-type and mutant 4EBP peptides fused to TAT (mutant residues are highlighted). (FIG. 1E) OVCAR-3 cells were treated with biotinylated peptides (3 micromoles per liter, final concentration) for 16 hours. Internalized peptides were detected by staining fixed cells with Texas Red-conjugated streptavidin. Nuclei were visualized by staining with 4′,6-Diamidino-2-Phenylindole (DAPI). (FIGS. 1F and 1G) OVCAR-3 cell lysates were incubated with peptides as described for FIG. 1B. In (FIG. 1F), immunoprecipitation was performed using streptavidin-agarose and Western blot performed using eIF4E antibody. In (FIG. 1G), immunoprecipitation was performed using eIF4E antibody, and Western blot performed using eIF4G antibody.
FIGS. 3A-3H. Uptake, binding and inhibitory effects of [DLys6]GnRH-4EBP fusion peptides. (FIG. 3A) Sequences of [DLys6]GnRH, and wild-type and mutant 4EBP1 peptides fused to the agonist. (FIG. 3B) Western blot of GnRH-RI levels in OVCAR-3, ES-2, MDA-MB-231, BJ, HUVEC and SKOV3 cells. (FIG. 3C) Detection of biotinylated peptides in OVCAR-3 and SKOV3 by Texas Red-conjugated streptavidin at 16 hours after peptide addition (3 micromoles per liter). In (FIGS. 3D and 3E), biotinylated peptides were incubated with OVCAR-3 cell lysate as described in FIG. 1. In (FIG. 3D), peptide was pulled down using streptavidin-agarose. Precipitates (P) and supernatants (S) were analyzed by Western blot using eIF4E antibody. In (FIG. 3E), immunoprecipitation was performed using eIF4E antibody, and Western blot performed using eIF4G antibody. (FIG. 3F) R-Luc and F-Luc activities were assayed in ES-2-DualLuc cells at 6 hours after addition of the indicated concentrations of peptides, and are expressed relative to the respective luciferase activities in cells incubated without peptide. Shown are results of triplicate assays performed independently two times, and the statistical significance of differences in relative R-Luc and F-Luc activities in cells treated with peptide at a concentration of 10 micromoles per liter (FIG. 3G) Cells of GnRH-RI-positive and -negative lines were treated with the indicated concentrations of peptides. […]

[2] = biological target: T2, eIF4E in SKOV3+GnRH-RI cells (Homo sapiens, UniProt P06730); assay: Pull-down of peptide from lysates of peptide-treated cells, Western blot with eIF4E antibody; type: cell-based; conditions: 10 micromoles per liter, 24 hours
T2 construct: endogenous in cells; host or cells: SKOV3 cells stably transfected with human GnRH-RI (eIF4E itself is not transfected)
Procedure: FIGS. 8A-8D. Effect of [DLys6] GnRH-4EBP1 peptide in SKOV3 cells stably expressing GnRH-RI. (FIG. 8A) Western blot analysis of GnRH-RI in parental SKOV3 cells and SKOV3 cells transfected with GnRH-RI. In (FIG. 8B), SKOV3+GnRH-RI cells were treated with biotinylated peptides at a final concentration of 10 micromoles per liter or incubated without peptide. At 24 hours after treatment, lysates were prepared from cells. Peptide was pulled-down using streptavidin-agarose. Precipitates and supernatants were analyzed by Western blot using eIF4E antibody. (FIG. 8C) parental SKOV3, SKOV3+GnRH-RI and ES-2 cells were treated with the indicated peptides (10 micromoles per liter) or incubated without peptide. At 24 hours after treatment, lysates were prepared from cells. Immunoprecipitation was performed using eIF4E antibody, and Western blot of precipitates was performed using eIF4G antibody. Western blot of whole cell lysates of treated cells was performed using antibodies to eIF4G, eIF4E and actin. (FIG. 8D) TUNEL-staining of parental SKOV3 and SKOV3+GnRH-RI cells at 3 days following treatment with peptide at a final concentration of 30 micromoles per liter.
Immunoprecipitation (IP) and Western blotting. Biotinylated peptides were incubated with 250 micrograms of cell lysate at a final concentration of 3 micromoles per liter for 6 hours at 4° C. […]

[3] = system: GnRH-RI-positive and -negative lines; assay: Cell viability assay across cell lines; type: cell-based; conditions: 3 days
Procedure: FIGS. 3A-3H. Uptake, binding and inhibitory effects of [DLys6]GnRH-4EBP fusion peptides. (FIG. 3A) Sequences of [DLys6]GnRH, and wild-type and mutant 4EBP1 peptides fused to the agonist. (FIG. 3B) Western blot of GnRH-RI levels in OVCAR-3, ES-2, MDA-MB-231, BJ, HUVEC and SKOV3 cells. (FIG. 3C) Detection of biotinylated peptides in OVCAR-3 and SKOV3 by Texas Red-conjugated streptavidin at 16 hours after peptide addition (3 micromoles per liter). In (FIGS. 3D and 3E), biotinylated peptides were incubated with OVCAR-3 cell lysate as described in FIG. 1. In (FIG. 3D), peptide was pulled down using streptavidin-agarose. Precipitates (P) and supernatants (S) were analyzed by Western blot using eIF4E antibody. In (FIG. 3E), immunoprecipitation was performed using eIF4E antibody, and Western blot performed using eIF4G antibody. […]
FIGS. 14A-14B. […] Viability of cells at 3 days after peptide addition was measured by crystal violet staining and is expressed relative to viability of cells incubated with no peptide. […] Staining of cells with FITC-Annexin V and PI was analyzed by flow cytometry.
Cell viability and TUNEL assays. […] Cells were stained with 0.5% crystal violet solution, and absorbance measured at 570 nm. […] Cells were fixed in 70% ethanol and the extent of apoptosis was determined by flow cytometric analysis of TUNEL-staining using the APO-BRDU kit (Phoenix Flow Systems, San Diego Calif.). […]

T1 sequence (P06730 2-217 limits assumed): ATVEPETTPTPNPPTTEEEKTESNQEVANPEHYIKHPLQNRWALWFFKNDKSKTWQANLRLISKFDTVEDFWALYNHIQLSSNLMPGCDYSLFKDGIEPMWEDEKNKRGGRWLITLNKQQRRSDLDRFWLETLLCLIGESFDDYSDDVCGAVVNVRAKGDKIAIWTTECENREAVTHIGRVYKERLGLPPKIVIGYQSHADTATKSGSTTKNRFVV
T2 sequence (P06730 whole entry): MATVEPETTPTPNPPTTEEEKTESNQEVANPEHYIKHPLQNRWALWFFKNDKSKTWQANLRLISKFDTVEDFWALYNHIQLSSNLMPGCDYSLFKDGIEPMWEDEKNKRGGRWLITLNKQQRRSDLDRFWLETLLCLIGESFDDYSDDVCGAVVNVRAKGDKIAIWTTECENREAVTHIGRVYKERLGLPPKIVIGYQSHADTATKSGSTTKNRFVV

[DLys6]GnRH: GnRH agonist with a D-amino acid substitution at position 6; GnRH-RI-targeting moiety (QHWSY[dK]LRPG; not fully specified (residue 1, C-terminus); ends and bridges not checked)
inhibition of eIF4E binding to eIF4G [1]: not inhibited | binding of peptide to eIF4E in treated cells [2]: neither mutant peptide nor [DLys6]GnRH alone bound eIF4E | cell growth across lines [3]: did not significantly inhibit cell growth
